For assay [1], the system named is GST-fused DOR C-tail. Kind of assay: GST-pull down, DOR C-tail. Format: binding. The note with it: percent of full-length GASP-1 interaction; three independent experiments. Put shortly: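 Fusion proteins bearing cytoplasmic receptor C-tails downstream of GST are captured on glutathione beads and exposed to [35S]-labelled GASPs made by in vitro translation. Incubation runs 1 h at 4°C in ice-cold Triton X-100 buffer, pH 7.4. Gel-separated bound GASP is measured by phosphorimaging.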

The subject of assay [2] is GFP-tagged ADRB1 in HEK293 cells. Kind of assay: Co-immunoprecipitation, ADRB1. Format: cell-based. The note with it: 48 h expression, anti-GFP immunoprecipitation. On the procedure:
HEK293 cells stably expressing N-terminal GFP-tagged ADRB1, ADRB2, CALCR and M1 or MyrPalm-mYFP were transfected with pcDNA3.1 containing the sequence for a central domain of GASP-1 (AA 380 to 1073) using JetPEI reagent (polyplus transfection) according to the instructions from the manufacturer. After 48 h of expression, cells were washed twice with PBS and lysed in a buffer containing 10 mM Tris-HCl, pH 7.4, 150 mM NaCl, 25 mM KCl, 0.3% Triton X-100 and cOmplete protease inhibitors (Roche) for 1 h at 4°C under agitation. 500 µg of cleared lysates were incubated with 1 µg of a mouse monoclonal anti-GFP antibody (Invitrogen) overnight at 4°C, followed by an incubation with 40 µl of protein A-Sepharose beads for an additional 2 h at 4°C. Beads were then washed five times in lysis buffer and precipitates were resolved on an 8% gel by SDS–PAGE and electrotransferred to immobilon-P membranes (Millipore) in 50 mM Tris-boric acid for 1 h at 300 mA. Membranes were blocked with 5% non-fat powder milk in TBS-Tween (50 mM Tris-HCl pH 8, 150 mM NaCl, 0.4% Tween-20) for 1 h at room temperature. […] For immunodetection of GASP or GFP-tagged receptors directly from cell lysates, 10 µg of proteins were loaded on SDS gels and analyzed following the procedure described above. Finally, membranes were washed in TBS-Tween and detected by chemiluminescence (ECL prime, GE Healthcare). […]

Assay [3] has as its system GST-fused CNR2 C-tail. The experiment in a line: GST-pull down, CNR2 C-tail. In kind it is binding. The note with it: central domain compared to full-length GASP-1. On the procedure:
(§1) cDNAs encoding the cytoplasmic C-tail of 14 GPCRs and 2 one-transmembrane receptors were cloned into the pGEX-2T prokaryotic expression vector downstream the GST sequence. […]
(§2) GST-fusion proteins were immobilized on glutathione-coupled Sepharose beads (GE Healthcare) for 1 h at 4°C and incubated with [^35S]-labelled in vitro translated GASP proteins or their truncated or mutated forms in ice-cold binding buffer containing: 20 mM Tris-HCl pH 7.4, 150 mM NaCl, 1 mM EDTA, 1 mM DTT, 10% glycerol and 1% Triton X-100. […] The supernatants were then analyzed by SDS-PAGE, the gels were stained with Coomassie blue to visualize GST-fusion proteins, dried and analyzed using a Phosphor-imager (Personal Molecular Imager FX, Biorad) to visualize [^35S]-labelled GASPs. Quantification was performed with the Quantity One software (Biorad). GST-pull down quantification data were analyzed using GraphPad Prism 4.03 (GraphPad Software). Quantifications presented are means of at least three independent experiments.

Assay [4] relates to GST-fused M1 C-tail. The experiment in a line: GST-pull down, M1 C-tail. Particulars: percent of full-length GASP-1 interaction; three independent experiments. Format: binding. From the text:
cDNAs encoding the cytoplasmic C-tail of 14 GPCRs and 2 one-transmembrane receptors were cloned into the pGEX-2T prokaryotic expression vector downstream the GST sequence. The following pGEX constructs were engineered: pGEX-DOR encoding residues 314–372 of the δ-opioid receptor (referring to Swiss-Prot accession number U10504), pGEX-MOR encoding residues 334–400 of the µ-opioid receptor (L29301), pGEX-KOR encoding residues 326–380 of the κ–opioid receptor (U17298), pGEX-ORL1 encoding residues 315–370 of the opioid receptor-like 1 (X77130), pGEX-M1 encoding residues 414–460 of the muscarinic M1 acetylcholine receptor (X52068), pGEX-M2 encoding residues 436–466 of the muscarinic M2 acetylcholine receptor (M16404), pGEX- ADRB1 encoding residues 373–477 of the β1 adrenergic receptor (J03019), pGEX-ADRB2 encoding residues 322–413 of the β2 adrenergic receptor (P07550), pGEX-CALCR encoding residues 407–490 of the calcitonin receptor (L00587), pGEX-CNR2 encoding residues 295–360 of the cannabinoid type 2 receptor (P34972), pGEX-5HT7 encoding residues 380–445 of the 5-hydroxytryptamine 7 receptor (L21195), pGEX-H2 encoding residues 284–349 of the histamine 2 receptor (S57565), pGEX-TXA2 encoding residues 304–343 of the α isoform of the thromboxane A2 receptor (D38081), pGEX-FZ4 encoding residues 493–537 of the frizzled 4 receptor (AB032417), pGEX-TGFβ encoding residues 805–849 of the type III transforming growth factor b receptor (L07594), pGEX-IGF1 encoding residues 1268–1367 of the insulin growth factor I receptor (X04434). Free GST was produced by using the pGEX-4T3 expression vector without insert. The same plasmid was used to clone the cDNA encoding a central domain of GASP-1, corresponding to amino acids 380 to 1073, downstream the GST sequence. All these plasmids were transformed into the Escherichia coli BL21 strain and expression was induced using 1mM of isopropylthiogalactoside for 2 h at 37°C. Bacteria were then pelleted, resuspended in PBS supplemented with cOmplete protease inhibitors (Roche), lysed at 1.5 kbar using a basic Z cell disrupter (constant system) and finally the lysates were cleared by centrifugation (10,000g, 15 min, 4°C).
cDNAs encoding GASP-1 and GASP-2 were cloned into the pcDNA3 eukaryotic expression vectors. cDNAs encoding GASP-3, -6, -7, and -9 were subcloned into pcDNA3.1 vectors. All the clones were controlled by DNA sequencing. The in vitro production was performed by using the TNT Quick-coupled Transcription/Translation T7 kit (Promega) in presence of [^35S]-Methionine according to the instructions from the manufacturer.
GST-fusion proteins were immobilized on glutathione-coupled Sepharose beads (GE Healthcare) for 1 h at 4°C and incubated with [^35S]-labelled in vitro translated GASP proteins or their truncated or mutated forms in ice-cold binding buffer containing: 20 mM Tris-HCl pH 7.4, 150 mM NaCl, 1 mM EDTA, 1 mM DTT, 10% glycerol and 1% Triton X-100. The mixture was incubated for 1 h at 4°C with gentle rocking. The beads were washed five times with the same ice-cold buffer, resuspended in 30 µl SDS-PAGE sample buffer, incubated 10 min at 65°C, and pelleted for 60 s at 3000 g. The supernatants were then analyzed by SDS-PAGE, the gels were stained with Coomassie blue to visualize GST-fusion proteins, dried and analyzed using a Phosphor-imager (Personal Molecular Imager FX, Biorad) to visualize [^35S]-labelled GASPs. Quantification was performed with the Quantity One software (Biorad). GST-pull down quantification data were analyzed using GraphPad Prism 4.03 (GraphPad Software). Quantifications presented are means of at least three independent experiments.

Assay [5] relates to GST-fused ADRB2 C-tail. The experiment in a line: GST-pull down, ADRB2 C-tail. The note with it: central domain compared to full-length GASP-1. In kind it is binding. On the procedure:
as §1, §2

B1: central domain of GASP-1: central portion of GASP-1 (AA 380 to 1073) that contains 19 GASP motif (protein)
chain: MTKEEAKTKARARAKQEARSEEEALIGTWFWATDESSMADEASIESSLQVEDESIIGSWFWTEEEASMGTGASSKSRPRTDGERIGDSLFGAREKTSMKTGAEATSESILAADDEQVIIGSWFWAGEEVNQEAEEETIFGSWFWVIDAASVESGVGVSCESRTRSEEEEVIGPWFWSGEQVDIEAGIGEEARPGAEEETIFGSWFWAENQTYMDCRAETSCDTMQGAEEEEPIIGSWFWTRVEACVEGDVNSKSSLEDKEEAMIPCFGAKEEVSMKHGTGVRCRFMAGAEETNNKSCFWAEKEPCMYPAGGGSWKSRPEEEEDIVNSWFWSRKYTKPEAIIGSWLWATEESNIDGTGEKAKLLTEEETIINSWFWKEDEAISEATDREESRPEAEEGDIIGSWFWAGEEDRLEPAAETREEDRLAAEKEGIVGSWFGAREETIRREAGSCSKSSPKAEEEEVIIGSWFWEEEASPEAVAGVGFESKPGTEEEEITVGSWFWPEEEASIQAGSQAVEEMESETEEETIFGSWFWDGKEVSEEAGPCCVSKPEDDEEMIVESWFWSRDKAIKETGTVATCESKPENEEGAIVGSWFEAEDEVDNRTDNGSNCGSRTLADEDEAIVGSWFWAGDEAHFESNPSPVFRAICRSTCSVEQEPDPSRRPQSWEEVTVQFKPGPWGRVGFPSISPFRFPKE
modifications: left off: GST, N-terminal, kept
notes: central portion of GASP-1 (AA 380 to 1073) that contains 19 GASP motif
For the molecule B1, the “interaction with DOR C-tail relative to full-length GASP-1” value in assay [1] is roughly 30%. Moreover, in assay [2], the “co-immunoprecipitation with ADRB1” value is given as “co-immunoprecipitated”. In addition, in assay [3], the “interaction with CNR2 C-tail” value is “mandatory and sufficient for this interaction”. The “interaction with M1 C-tail relative to full-length GASP-1” value in assay [4] is reported as “around 70%”. For the same molecule, in assay [5], the “interaction with ADRB2 C-tail” value is “mandatory and sufficient for this interaction”.

The record behind these values is publication PMC3575409, “Identification of a Novel Protein-Protein Interaction Motif Mediating Interaction of GPCR-Associated Sorting Proteins with G Protein-Coupled Receptors” (PLoS ONE, 2013).
